From the DeepSol protein solubility set

Experiment: soluble on expression in E. coli; label from the status in PepcDB or PDB records

Sequence	soluble on expression in E. coli
GPGSMKTIALLSGGKDSILAMLMAHRYGHEPVVIANMAPVLESDGALRGAAENGTHGHDIDSYMYQTVGFEAVDSIAACLGLPLRRGRVRRGLAKDQSLLYSEQPPEEDEVESLYSLIRTVKEEFPEVQGLTSGAILSNYQRNRVELICDRLGLESLAYLWMRQPDEILDMADALHVQAILVKTASIGLMPRCLIGKTLEEARPTLEKMAELYHSHLAGEGGEYETIVLNCPLFHAEHLTVTALEVVMQDDNDISPSGHGLLTVARVPKSVEQQAKEAEVLARVRAGAVTFPSDTMPLLRSCAVYPLALSATASARGPGETIDLPLPATIRSALFLGSGTAAARDGIAHHTYASPLEAGASAAEALNACLTVLQTWAAERSLTPFYYHFSLPEPSWEVSCRAAYAGKVSHVCPPGLLVTVRDSRSRSAAAVEAEVLAAPTAAIQQHVLHAQSRSCWALGEPGPHSQARRVGLATGTSRLFVSATPGRVPATREVATASDLPAVCQQCITALAAAQHGEETSAALTDIAAQFVVAMSNCERYLTLFGCSFGDVDRAAVVATDDVPVSLLPALWQWTTQNTGALPFERVCQVVVVGALSGTEKIRVSMECVEVRGGGG	not soluble
MGSDKIHHHHHHMKTMRKILEIDEERCNGCGLCVLDCAEGAIAIVDGKAKIVSDSFCDGLGACIGSCPQDALHIIEREAVPFDEEAAMEHVRSQGGTPEANHGHGHGAGTPHRHGQSAEHGGHGRIPGHGGCPGAAMRRFDSAESPAFAVAEGTVKGPGHWPLKIRLVPPTAPFLKGADVLVAADCAAAASPIFHSHFAAGKVVLIGCPKFDDTEAYAERLADILRVSGIASLTVLRMEVPCCRGLSAAAEKARVLSGTSLVLKEVIMTCAGGPAAPAPLSSL	not soluble
MNYNSKMEPLAIPEYGRNIQNMVNYCMTIGDRDERNRCAQTIITIMGNMFPERRENSETKHILWDHLAIMSGFKLDIDYPMEIISPELLERKPKAVSYSANDIVYRHYGHLIQEMILKACAMEQGEERYALELLIANQMKRSYLTWNKDTVDDYKIFKDLYELSEGRIELTEESCHLTIPNASDRKDNNNTKRNKVFRRK	not soluble
MEKILEKIEEFFGFIPEIFKVLEDEPEILEAYYDKMEKILSNDALPLVTKELIGVGAAAALGSEHCLKTHIKAAKRLDAGGDEILLAILIGASMAESTALSRSLRVFKEERMDL	not soluble
MGSDKIHHHHHHMPAILDLFNQKTVLDYVQNRQYPQLLGDTLFPSVKIDQLDFEYLRGGSKTPIIASVSAFDTEAEIGSREASVQAAELGYIKRKMQLKEKDLIALRNPRTPAEQNYLTSLVYNDLDVLVQGVYARVEKMRMEALATGTISIDENNMNFGVTYNVPAEHQVTAATSWDADGADPIKDLQDWFALLDYAPTRILTSSKVQTALIRSKAFADYFKTAGLLPSVGSLNAVLQSFGLPTIVTYDAKYRKQGANGIYTVERYFPEDTLVAFGDDQLGQTVYGPTPEESRLIATPGVQQGTVGNVFTTVYETTQDPIATWEKAAATALPSFPEAENVLQAKVLIPKP	not soluble
MSLSRHSNTPATDASVLLVQLSDSHLFAEDGARLLGMDTAHSLEKVVERVAREQPRIDLILATGDVSQDGSLDSYTRFRRLSAPLDAPLRWFAGNHDEREPMQRATEGSDLLEQVVDVGNWRVVLLDSSIPGAVPGYLEEDQLELLRRAIDSAGERFLLVSFHHHPVPIGSDWMDPIGLRNPQALFDLLAPYPQVRCLLWGHIHQEFDRQRGPLRLLASPSTCVQFAPGSSDFTLDRLAPGYRWLRLHDDGRLETGISRVDDVVFEVDYDTAGYEGGSHHHHHH	soluble
MSLIGETINKLKVIKESSKRDKSRCKMYECLCECGEVIIVRSSTLRQGKIKSCGCESNKIHSELMRERNTTHGLSSNPMYQRWLGMKQRCYDVNAINYKNYGGRGIEICEEWKNDFKKFYDYMGDPPNENYQIDRINNDGNYEPGNVKWSTRSENSTNIRKKSTHNIYKKSNNVYNIQIVRKNKVKYFSAKSLEEAIELRDNVINKYNETGEGHHHHHH	not soluble
GLTYDLNGNISTYRNEILELPETVAANGKFGGNGVKSVVGHTYGAQVGYIADGIFKSQDEVDNHATQEGAAVGRIRYRDIDHNGVIDERDQNWIYDPTPSFSYGLNIYLEYKNFDLTMFWQGVQGVDIISDVKKKSDFWSASNVGFLNKGTRLLNAWSPTNPNSDIPALTRSDTNNEQRVSTYFVENGSFLKLRNIQLGYTVPAVISKKMRMDRLRFYCSAQNLLTIKSKNFTGEDPENPNFSYPIPVNITFGLNIGF	not soluble
MHHHHHHSSGRENLYFQGTGQDALVLGFDWGKFLKDHSYKAAPVSCFKHVPLYDQWEDVMKGMKVEVLNSDAVLPSRVYWIASVIQTAGYRVLLRYEGFENDASHDFWCNLGTVDVHPIGWCAINSKILVPPRTIHAKFTDWKGYLMKRLVGSRTLPVDFHIKMVESMKYPFRQGMRLEVVDKSQVSRTRMAVVDTVIGGRLRLLYEDGDSDDDFWCHMWSPLIHPVGWSRRVGHGIKMSERRSDMAHHPTFRKIYCDAVPYLFKKVRAVYTEGGWFEEGMKLEAIDPLNLGNICVATVCKVLLDGYLMICVDGGPSTDGLDWFCYHASSHAIFPATFCQKNDIELTPPKGYEAQTFNWENYLEKTKSKAAPSRLFNMDCPNHGFKVGMKLEAVDLMEPRLICVATVKRVVHRLLSIHFDGWDSEYDQWVDCESPDIYPVGWCELTGYQLQPPVAAEPATPLKAKEATKKKKKQ	soluble
MGSDKIHHHHHHMNKELFCIENLRVAYPQRSGEELQWAIDDVSFTLQPGERMGLVGESGCGKSTLGRAAMRLLPPSSLVEGRVTFQGKSVFDLTPNELRKFRGEAVALIFQDPMTRLDPLMTIGNHCIETLQAHAPELSAKEAKEKALATLEKVKIPASRWGQYPHEFSGGMRQRVAIALALLLNPKLIVADEPTTSLDVTVSAQILQELTRLCSEENMALLLISHDLAMVAEYCSRIGVMYNGKMVEMGTTESVFKNPQHEYTRSLLKAALHIQAVDEGSSEASQSPIPSPQSPILRITELKQYYTIEPNFVERLFKAESQTIKAVDGINLELYPGEILGLVGESGCGKSTLSRTILQLIRPTSGKVEFLGQDLTKLSRQEIRACRRQIQMVFQDPHACLNPAMTVGESIADPLLIHHLADAAKAKEQVLWMLQKVGLTPPEVYYQRYPSDLSGGQQQRVAIARALITRPKMLICDEPVSMLDASVQSQVLDLMLQLKEEFELTYLFITHDLWLARFLCDRIAVMHGGKIVELGETKQIFAHPQHPYTQTLLAAAPLLARA	not soluble
MGVPFIRFLNITFDRRGDELTGVLNFDDKLIGNPFLPAIHGGVTAAFLEVTAVITLSWAHLFERIESGDLAPEDILTDENMRFPKTIDFTIDYLRSGLPRDAYARAYISRAGRRYASVRVEAWQDHHDKLYAQGTGHFLMPLEHHHHHH	soluble
MGSDKIHHHHHHMMFEDTHDEHVLLTPGPTPIHPRAQKALIRSMLGHMDPEVFALNSEIQRDLREMYGTEPEGFTALLAGTGSLGMEAGFANLVEAGDEVLVCANGSFGRRMAEMAARYGAKVRLVTAPLGEAIKPADVAAHLDDDISMVAVVHGETSTGVLNPVPEIAELVRGSGALLTVDAVTTAGMEPFHMQQWGVDYAYTGAQKCLSAPPGLAPVAISERAFSRFAARRTQTPLWYCDFEGLRDYWVNHTYHHTVPVNLHFAFHAALRAALEEGLEARQARVRLMGRVIERTLAPLGFSHYVRRPEDRLPTVLALRLPEGFDDAGLRQALRQREISVTGGLGPTAGVIWRLGLMGESARPGPYHRLMTELEDLLGAPGLLDRYEAVLAEEQRGELALA	not soluble
MASSVLEMIKEEVTCPICLELLKEPVSADCNHSFCRACITLNYESNRNTDGKGNCPVCRVPYPFGNLKPNLHVANIVERLKGFKSIPEEEQKVNICAQHGEKLRLFCRKDMMVICWLCERSQEHRGHQTALIEEVDQEYKEKLQGALRKLMKKAKICDEWQDDLQLQRVDWENQIQINVENVQRQFKGLRDLLDSKENEELQKLKKEKKEVMEKLEESENELEDQTELVRDLISDVEHHLQLSTLEMLQGANCVLRRSQSLSLQQPQSVPQKRKRTFQAPDLKGMLQVYQGLMDIQQYWVHMTLHARNNAVIAINKEKRQIQYRSYNTVPVSEIYHLGVLGYPALSSGKHYWEVDISRSDAWLLGLNDGKCAQPQLHSKEEMGIKKNLHSQIKQNVLFQPKCGYWVIGMKNPSVYNAFDECSITHNSSILVISLPDCPSRVGVFLDRKAGTLSFYDVSNCGALIYRFYDPAFPVEVYPYFNPMKCSEPMTICGPPS	soluble
MGSDKIHHHHHHMKVRIRDFIETTEGLYFAVNTYAHPKNKFFAFLRYVPYEFVDFKIEDNNIREINGRKYIKMAESKIAYKFLEEKFSKYLYYDETINVLMHAIPKEDVKRILRPKERLNEIINEENNLNELEEKCRKLALILEDYGVPIKSMGVSGSLLLKLNNKNSDIDFVIYGKDMHKKAREALKQAFEDNKLKPLSDDFWKIAYKKRIKDKTLTYEEFVFYEKRKYNRGIVDNTMFDLLFTREWDEITEKYGDKRYKNLGFAKIEGRVLNDDFAFDNPAVYKIECYNDEDIKEVVSFTHTYAGQCFNGEEIVARGKLEEVIDKSGERYKRIVVGTTREAFNEYIKIKR	not soluble
MSVEEVSKKFEENVSVDDTTATPKTVLSDSAHFDVKHPLNTKWTLWYTKPAVDKSESWSDLLRPVTSFQTVEEFWAIIQNIPEPHELPLKSDYHVFRNDVRPEWEDEANAKGGKWSFQLCGKGADIDELWLCTLLAVIGETIDEDDSQINGVVLSIRKGGNKFALWTKCEDKEPLLRIGGKFKQVLKLTDDGHLEFFPHCSANGRHPQPSITL	soluble
MSVINCEEVKRDEFHTEKYYESYNIFGAHIVTEDEMRGVRFTVWAPHAKAMSVVGDFNEWDYEQHKMLQVTEEGIWSLFIPHIEEREIYKYAIETMAGDVIFKADPYAVYAEVRPNTASVVFDIKGYEWNDKNWSRKKKKKSVYKEAMTVYELHFGSWKKKEDGTLYSYREMAEELIPYVVEHQFTHIEIMPLVEHPYDRSWGYQGTGYYAATSRFGTPHDLMHFVDECHKYGIGVILDWVPGHFCKDAHGLYLFDGTPTYEYKDKDVQENPVWGTVNFDLGKREVRNFLISNALFWMRYFHIDGFRVDAVANMLYWNKEGQEQSNEHAVSFLRELNEAVFAEDEDFLMTAEDSTAWPLVTAPTYEGGLGFNYKWNMGWMNDVLKYMECAPEYRKYIHDKMTFSLLYAYSENFILPLSHDEVVHGKKSLLNKMPGDYWDKFAQLRLLYGYFFTHPGKKLLFMGGEFGQFDEWKDLEDLDWNLHDFEMHRYMHDYFKELIALYKRSKPLWQLDHSREGFQWIDANNNEQSIFSFIRQGDKQEDALVVVCNFTKATYENYKVGVPDFEYYNEVLNSDAEQYGGSGQVNKKRLKTFQEPYHNQTAHVEITIPPFGVSILRPVKTRKGSKKQDGSKTKVRSNVTSRGKR	not soluble
MGSSPAPFADIGKKAKDLLNKDYIFDHKFTLTMLSATGTEFVATGLKKDDFFFGDISTLYKGQNTIVDLKIDSHSSVSTKVTLKNLLPSAKAVISFKIPDHKSGKLDVQYVHPHATLNSSIGLNPTPLLDLSATIGSQNVCLGGEVSFDTASSSLTKYNAGIGFNNQGVSAALILEDKGESLRATYVHTVNPTTSFGAELIRRFSNYNNSFTVGSSHSVDQFTVVKTRFSNSGKAGMVVQREWRPKSHITFSAEYDSKAVTSSPKLGLALALKP	soluble
MKAHHILKVTKQYNPTEDLEFNPDLDGELVAGADNLPSVEIQVEKIADRQRQITARVQIPQPVEQVWQVLTNYEALADFIPNLAKSSLLEHPNGGIRLEQVGSQRLLNFKFCARVVLDLEEYFPKEINFQMVEGDFKGFSGNWCLQPYALGNVIGTDLCYTIQVWPKLTMPITIIERRLSQDLRSNLLAIYQRVECLANQSLLEHHHHHH	soluble
